This test has as its target trimerized sTNFRII-gAD fusion protein (UniProt P20333). The test is described as follows: AUC; ultracentrifuge analysis of the purified trimerized sTNFRII-gAD.

One may read the stoichiometry N as the number of molecules, sites or subunits per partner or assembly. On to “trimerized sTNFRII-gAD fusion protein (from UniProt P20333 23-257)”, for which the stoichiometry N was 3.

The values are drawn from article PMC4207793.
